The data set in a line: yeast display, Sf9 membrane polyspecificity reagent, FACS + sequencing; frameworks hold sequencing errors. In short, it runs like this: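 Nanobodies from a synthetic yeast display library (Saccharomyces cerevisiae BJ5465), induced 36–48 hours with galactose, were stained 1 hour at 4 °C with 10% biotinylated, detergent-solubilized Sf9 membrane reagent, enriched on streptavidin microbeads, then FACS-sorted. Anti-HA (expression) and streptavidin (reagent binding) fluorescence set low and high (top ~1%) gates. Polyreactivity labels come from the gate of origin. Genes were colony-PCR amplified, MiSeq 2 × 250 sequenced and filtered by CDR length.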
For the sequence “QVQLVESGGGLVQAGGSLRFSCAASGGTFSGYAMGWYRQAPGKERELVAAITSGGGTTYADSVKGRFTISRDNAKNTVYLQMNSLKPEDTAVYYCAKEGHVVIFYIGQYELDYWGQGTQVTVSS”, the “polyreactivity (PSR sort gate)” value was “low polyreactivity”.
Take “QVQLVESGGGLVQAGGSLRFSCAASGGTFWYYAMGWYRQAPGKERELDASISRGGSTNYADSVKGRFTISRDNAKNTVYLQMNSLKPEDTAVYYCIAGLRVGPRRYVDYEYDYWGQGTQVTVSS”: the “polyreactivity (PSR sort gate)” value was “low polyreactivity”.
Take “QVQLVESGGGLVQAGGSLRFSCAASGIIFYFYTMGWYRQAPGKERELVAAISSSGGRTFYADSVKGRFTISRDHAKNTVYLQMNSLKPEDTAVYYCAAGYPYGGDYWGQGTQVTVSS”: the “polyreactivity (PSR sort gate)” value is recorded as “high polyreactivity”.
Consider “QVQLVESGGGLVQAGGSLRFSCAASGLIFRGYVMGWYRQAPGKERELVAAISRRGVNTYYADSVKGRFTISRDNAKNTVYLQMNSLKPEDTAVYYCAAETHVGWPAKFDYWGQGTRVTVSS”, for which the “polyreactivity (PSR sort gate)” value is “high polyreactivity”.
Turning to “QVQLVESGGGLVQAGGSLRFSCAASGLTFSWNAMGWDRQAPGQERELVAAITSSGTSTYYADSVKGRFSISRDNAKITVYLQMHSLKPEDTAVYYGAAEGDYWGWEDDYWGQGTQVTVSS”, the “polyreactivity (PSR sort gate)” value was “high polyreactivity”.
In the case of “QVQLVESGGGLVQAGGSLRFSCAASGRIFDYYAMGGYRQAPGKERELVATINVSDGSTYYADSVKGRFTISRDNAKNTVYLQMNSLKPEDTAVYYCAAAGWVPFDSLDLNYWGQGTQVTVSS”, the “polyreactivity (PSR sort gate)” value was “low polyreactivity”.
The value for “QVQLVESGGGLVQAGGSLRFSCAASGRIFGRYAMGWYRQAPGKERELDAAISYSGGSTYYADSVKGRFTISRDNAKNTVYLQMNSLKPEDTAVYYCAVVVYQYTPSQRFYYWGQGTQVTVSS” was “high polyreactivity”.
“QVQLVESGGGLVQAGGSLRFSCAASGRIFSIYAMGWYRQAPGKERELVAAISKRGGSTSYADSVKGRFTISRDNAKNTVYLQMNSLKPEDTAVYYCNARGWIPARGWDDYYWGQGTQVTVSS”: the “polyreactivity (PSR sort gate)” value was “high polyreactivity”.
The same measure for “QVQLVESGGGLVQAGGSLRFSCAASGRIFYANAMGWYRQAPGKERELVAAISSGGSTYYADSVKGRFTISRDNAKNTVFLQMNSLKPEDTAVYYCAVYTHKKVRPEYVYWGQGTQVTVSS”: “low polyreactivity”; for “QVQLVESGGGLVQAGGSLRFSCAASGRNFVVYAMGWYRQAPRKEREFVAAITWSGDSTTYYADSVKGRFTISRDNAMTTFYLQLKSLKPDDTAVYYCASEGDGANGGAYDYWGQGTQVNVSS”: “low polyreactivity”.
Consider “QVQLVESGGGLVQAGGSLRFSCAASGRTFYGYAMGWYRQAPGKERELVAAITRSGGSTYYADSVKGRFTISRDNAKNTVYLQMNSLKPEDTAVYYCAAGGQARHDYWGQGTQVTVSS”, for which the “polyreactivity (PSR sort gate)” value was “low polyreactivity”.
The value for “QVQLVESGGGLVQAGGSLRFSCAASGSIIYFYAMGWYRQAPGKERELVATITSGGRTYYADSVKGRFTISRDTAKNTVYLQMNSLKPEDTAVYYCNRRPVSYRYSSYNYDYLGQGTQVTVSS” was “high polyreactivity”.
For the sequence “QVQLVESGGGLVQAGGSLRFSCAASGSILSKNAMGWYRQAPGKERELVAAISSGGSTYYADSVKGRFTISRDKAKNTVYLQLNSLKPEDTAVYYCATYCTSVAYHLYYWGQGTQVTVSS”, the “polyreactivity (PSR sort gate)” value is listed as “low polyreactivity”.
For “QVQLVESGGGLVQAGGSLRFSCAASGSTFGDYTMGWYRQAPGKERELVAAISTSGTITYYADSVKGRFTISRDNAKNTVYLQMNSLKPEDTAVYYCAKLSQYTPVNDGYYWGQGTQVTVSS”, the “polyreactivity (PSR sort gate)” value is “low polyreactivity”.
The same measure for “QVQLVESGGGLVQAGGSLRFSCAASGSTFPYYAMGLYRQAPGKERELVATITKRGGRTYYADSVKGRFTISRDNAKNTVYLQMISLKPEDTAVYYCAARYRFAVTYEYWGQGTQVTVSS”: “high polyreactivity”; for “QVQLVESGGGLVQAGGSLRFSCAASGYIFTPYAMGWYRQAPGKERELVAAISWSGGSTYYADSVKGRFTISRDNEKNTVYLQMNSLKPEDTAVYYCAAESAWGSRVFYSKFYYWGQGTQVTVSS”: “low polyreactivity”; for “QVQLVESGGGLVQAGGSLRFSCAATGSISYGYAMGWYKQAHGKERELVAAISRRGGTTYFADSVKGRFTISRDNAKNSLYLQINSLKAEDTAVYYCNALLPDLAQYDYWGQGTQVTVSS”: “high polyreactivity”.
Regarding “QVQLVESGGGLVQAGGSLRFSCADSGFTFRTYAMGWYIQAPGKERELVATIRRAGSTYYADSVKGRFTISRDNAKNTVYLQMNSLKPEDTAVYYCAATHYSFSWGYDYWGQGTQVTVSS”, the “polyreactivity (PSR sort gate)” value is “high polyreactivity”.
As for “QVQLVESGGGLVQAGGSLRFSSAASGRTFSSNAMGWYIQAPGKERELVAAISNSGSSTYYADSVKGRFTISRDNAKNTVYLQMNSLKPEDSAVYYCNAVGVYYWWYRLYDYWGQGTQVTVSS”, the “polyreactivity (PSR sort gate)” value is given as “high polyreactivity”.
Take “QVQLVESGGGLVQAGGSLRFSSPASGGTFFVNAMGWYRQAPGKERELVASITLSGGSSYYADSVKGRFTISRDNAKNTVYLQMNSLKPEDTAVYYCAKGWTRDNEREREDEYWGQGTQGTVSS”: the “polyreactivity (PSR sort gate)” value is “low polyreactivity”.
With “QVQLVESGGGLVQAGGSLRIICAASGSIFTYNSMGWYREAPGKERELVAAISASGGRTYYADSVKGRFTISRDNAKNTVYLQMNSLKPEDTAVYYCNVLHRSDSGYYYRYDYWGQGTQVTVSS”, the “polyreactivity (PSR sort gate)” value is “high polyreactivity”.
The same measure for “QVQLVESGGGLVQAGGSLRIICPASGNTFAYYAMGWYRQAPGKEREFVAAISGSGGRTYYADSVKGRFTISRDNAKNTVYLQMNILKPEDTAVYYCNARPAGGQGYGYWGQGTQVTVSS”: “high polyreactivity”; for “QVQLVESGGGLVQAGGSLRISCAASAITFPRNAMGWYREAPGKERELVAAITSVGSTKYADSVKGRFTFSRDNAKNTVYLQMNSLKPEDTAVYYCATRGASAISNSVRWSYYYWGQGTQVTVSS”: “low polyreactivity”.
For the sequence “QVQLVESGGGLVQAGGSLRISCAASGFIFDPYAMGWYRQAPGKERELVASINTRGDRTSYADSVKGRFTISRDNAKNTVYLQMNSLKPEDTAVYYCNADAVDQVGPDDDYWGQGTQVTVSS”, the “polyreactivity (PSR sort gate)” value is “low polyreactivity”.
With “QVQLVESGGGLVQAGGSLRISCAASGFIFGTNAKGWYRQAPGKERELVAAINCRGGGTYYADSVKGRFTISRDNAKYTVYLEMNSLKPEDTAVYYCAASRFDYWGQGTQVTVSS”, the “polyreactivity (PSR sort gate)” value is recorded as “low polyreactivity”.
Regarding “QVQLVESGGGLVQAGGSLRISCAASGFIFNIYAMGWYRQAPGKERELVASITSGGNTNYADSVKGRFTISRDNAKNTVYLQMNSLKPEDTAVYYCAAETSSSRGYDYWGQGTQVTVSS”, the “polyreactivity (PSR sort gate)” value was “low polyreactivity”.
Consider “QVQLVESGGGLVQAGGSLRISCAASGFIFPWYTMGWYRQAPGKERELVAVINQSGGSTYYADSVKGRFTISRDNAKNTVYLQMNSLKPEDTAVYYCAARLVKQYYYWGQGTQVTVSS”, for which the “polyreactivity (PSR sort gate)” value is reported as “high polyreactivity”.
On to “QVQLVESGGGLVQAGGSLRISCAASGFIFQSNAMGWYRQAPGKERELVAAISWSGDNTYYADSVKGRFTISRDNAKNTVYLQMNSLKPEDTAVYYCAAVPYPSYYDTGYDYWGQGTQVTVSS”, for which the “polyreactivity (PSR sort gate)” value is recorded as “low polyreactivity”.
Turning to “QVQLVESGGGLVQAGGSLRISCAASGFIFTGTALGWYRQAPGKERELVAAITWSGGRTYYADSVKGRFTISRDNAKNTVYLQMNSLKPEDTAVYYCNVYFSIAQRYVGGLIAHDNYWGQGTQVTVSS”, the “polyreactivity (PSR sort gate)” value is reported as “high polyreactivity”.
The value for “QVQLVESGGGLVQAGGSLRISCAASGFIISFYAMGWYRQAPRKERELVAAIKLSGGSTYYADSVKGRFTISRDNAKNTVYLQMNSLKPEETAVYYCNDVQYFSIPKPVWLFVLRYYYWGHGTQVTVSS” was “low polyreactivity”.
As to “QVQLVESGGGLVQAGGSLRISCAASGFTFSYNAMGWYRQAPGKERELVAGINVSSGGDTYADSVKGRFTISRDNAKNTVYLQMNSLKPEDTAVYYCAKDHYGDDTYGTPYDYDYWGQGTQVTVSS”, the “polyreactivity (PSR sort gate)” value is given as “low polyreactivity”.
Regarding “QVQLVESGGGLVQAGGSLRISCAASGGIIAINSMRCYRQAPGKERELVAAISWGDGITYYSDSVKRRFTISRDNAKYTVYLHMISLKPEDTAVYYCAADEDEYRGGDESWGQGTQVTVSA”, the “polyreactivity (PSR sort gate)” value is given as “low polyreactivity”.
“QVQLVESGGGLVQAGGSLRISCAASGGTFQAYAMGWYRPAPGKERELVAAITRRGTRTYYADSVKGRFTISRDNAKNTVYLQMNSLKPEDTAVYYCAAVRYPNWYDYWGQGTQVTVSS”: the “polyreactivity (PSR sort gate)” value was “high polyreactivity”.
With “QVQLVESGGGLVQAGGSLRISCAASGIIFYRNAMGWYRQAPGKERELVAVITASGGNTYYADSVKGRFTISRDNAKNTVYLQMNSLKPEDTAVYYCNRELTSPRRWHVSRAYDYWGQGTQVTVSS”, the “polyreactivity (PSR sort gate)” value is on record as “low polyreactivity”.
As to “QVQLVESGGGLVQAGGSLRISCAASGITFYGYAMGRYRQAPGKERELVATISKSGGITSYADSVKGRFTISRDNAKNTVYLQMNSLKPEDTAVYYCNRGKSYGGYDYWGQGTQVTVSS”, the “polyreactivity (PSR sort gate)” value is “low polyreactivity”.
For the sequence “QVQLVESGGGLVQAGGSLRISCAASGLIFGINAMGWYIQAPGKERELVATITSGGGTNYADSVKGRFTISRDNAKNTVYLQMNSLKPEYTAVYFCALDSASDTIYDYWGQGTQGTVSS”, the “polyreactivity (PSR sort gate)” value is reported as “low polyreactivity”.
For the sequence “QVQLVESGGGLVQAGGSLRISCAASGLTFDYNAMGWYTQAPGKERELVAAITSGGSTKYADSVKGRFTISRDNSKNTVYLQMNSLKPEDTAVYYCARDRPGDYAGYDYWGQGTQVTVSS”, the “polyreactivity (PSR sort gate)” value is “low polyreactivity”.
On to “QVQLVESGGGLVQAGGSLRISCAASGLTFGRYAMGWYRQAPGKEMELVAAITGSGGRTYYADSVKGRFTISRDNAKNNVYLQINSLKQEDTAVYYCATEASPRGYAEYDYWGQGTQVTVSS”, for which the “polyreactivity (PSR sort gate)” value is “high polyreactivity”.
The value for “QVQLVESGGGLVQAGGSLRISCAASGLTFWAYAMGWYRQAPGKEREFLAAISWSGDSTYYADSVKGRFTISRDNAKNTVYLQMNSLKPEDTAVYYCAAEWYYVYIAPYDYWGLGTQVTVSS” was “low polyreactivity”.
“QVQLVESGGGLVQAGGSLRISCAASGRIFEVYDMGWYRQAPGKERELVAAISESDDNTYYADSVKGRFTISRDNAKNTVYLQMNSLKPEDTEVYYCNADVPGDTGWWGFDYWGQGTQVTVSS”: the “polyreactivity (PSR sort gate)” value was “low polyreactivity”.
The value for “QVQLVESGGGLVQAGGSLRISCAASGRIFSWYVMGWYRQAPGKERELVAAISSGGSTYYADSVKGRFTISRDNAKNTVSFQMNSLKPEDTAVYYCAVRPYVYRIGASRLDYWGQGTQVTVSS” was “high polyreactivity”.

These data come from the nanobody polyreactivity screen of Harvey et al. (2022).
